# Measurements taken from PMC11236199, “Variation in structural motifs within SARS-related coronavirus spike proteins” (PLOS Pathogens, 2024).
# Target: the molecule itself
# Assay: cryo-EM structure
protein,measurement,value
"Bat SARS-like coronavirus WIV1 spike protein ectodomain (domain or fragment, also called bCoV-WIV1; bat SL-CoV WIV1) not shown",stoichiometry N,3
